Experimental data published in article PMC3182529.

Target: 14-3-3ζ (UniProt P63104)
Experiment: fluorescence polarisation

Chain of 14-3-3ζ (P63104 whole entry): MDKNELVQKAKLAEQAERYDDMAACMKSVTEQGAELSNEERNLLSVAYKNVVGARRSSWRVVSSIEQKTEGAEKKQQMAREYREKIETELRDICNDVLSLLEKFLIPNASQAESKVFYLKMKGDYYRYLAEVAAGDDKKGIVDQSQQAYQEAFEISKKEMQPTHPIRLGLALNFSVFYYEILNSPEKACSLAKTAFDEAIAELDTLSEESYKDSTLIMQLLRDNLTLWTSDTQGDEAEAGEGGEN

Substance	Kd [µM]
H3K27acS28ph (25–38) (from UniProt P68431 26-39) (peptide)	34.9
H3S28ph (25–38) (from UniProt P68431 26-39) (peptide)	18.7
H3S28phP30A (25–38) (from UniProt P68431 26-39) (peptide)	162
